The values that follow come from patent US20170101454A1 (Novo Nordisk, published 2017).

Starred links: 1 amine or outer side, 2 acyl side, 3 side chain; linkers in the order of their positions; H or OH if unused. Non-standard residues stand in square brackets, D forms with d. Groups on a side chain read outwards from the residue. No end group written: not given here. *: point of attachment. C18 diacid = O=C(O)CCCCCCCCCCCCCCCCC(=O)*; γGlu = O=C(O)[C@H](CCC(=O)[*:2])N[*:1]; Ac4c = NC1(C(=O)O)CCC1; AEEA = NCCOCCOCC(=O)O; Aib = CC(C)(N)C(=O)O

B1: N^ε28-[2-[[(2S)-2-[[(2S)-4-carboxy-2-[[2-[[(2S)-2-[[(4S)-4-carboxy-4-[[(4S)-4-carboxy-4-(17-carboxyheptadecanoylamino)butanoyl]amino]butanoyl]amino]-3-hydroxypr … (peptide)
peptide: H[Ac4c]QGTFTSDLSKYLESRRAREFVQWLIK([Gly-Ser-Glu-Gly-Ser-γGlu-γGlu-C18 diacid])T-NH2
notes: also called Chem. 16; Chem 16
B2: N^ε29-[(4S)-4-carboxy-4-[[(4S)-4-carboxy-4-[[2-[2-[2-[[2-[2-[2-[[(4S)-4-carboxy-4-(17-carboxyheptadecanoylamino)butanoyl]amino]ethoxy]ethoxy]acetyl]amino]ethoxy … (peptide)
chain: H[Aib]QGTFTSDYSKYLESRRAQDFVAWLISK([γGlu-γGlu-AEEA-AEEA-γGlu-C18 diacid])-NH2
modifications: N-terminus assumed
SMILES: CC[C@H](C)[C@H](NC(=O)[C@H](CC(C)C)NC(=O)[C@H](Cc1c[nH]c2ccccc12)NC(=O)[C@H](C)NC(=O)[C@@H](NC(=O)[C@H](Cc1ccccc1)NC(=O)[C@H](CC(=O)O)NC(=O)[C@H](CCC(N)=O)NC(=O)[C@H](C)NC(=O)[C@H](CCCNC(=N)N)NC(=O)[C@H](CCCNC(=N)N)NC(=O)[C@H](CO)NC(=O)[C@H](CCC(=O)O)NC(=O)[C@H](CC(C)C)NC(=O)[C@H](Cc1ccc(O)cc1)NC(=O)[C@H](CCCCN)NC(=O)[C@H](CO)NC(=O)[C@H](Cc1ccc(O)cc1)NC(=O)[C@H](CC(=O)O)NC(=O)[C@H](CO)NC(=O)[C@@H](NC(=O)[C@H](Cc1ccccc1)NC(=O)[C@@H](NC(=O)CNC(=O)[C@H](CCC(N)=O)NC(=O)C(C)(C)NC(=O)[C@@H](N)Cc1c[nH]cn1)[C@@H](C)O)[C@@H](C)O)C(C)C)C(=O)N[C@@H](CO)C(=O)N[C@@H](CCCCNC(=O)CC[C@H](NC(=O)CC[C@H](NC(=O)COCCOCCNC(=O)COCCOCCNC(=O)CC[C@H](NC(=O)CCCCCCCCCCCCCCCCC(=O)O)C(=O)O)C(=O)O)C(=O)O)C(N)=O
B3: N^ε29-[(4S)-4-carboxy-4-[[(4S)-4-carboxy-4-[[2-[2-[2-[[2-[2-[2-[[(4S)-4-carboxy-4-(17-carboxyheptadecanoylamino)butanoyl]amino]ethoxy]ethoxy]acetyl]amino]ethoxy … (peptide)
chain: H[Aib]QGTFTSDLSKYLDLRRARDFVQWLISK([γGlu-γGlu-AEEA-AEEA-γGlu-C18 diacid])-NH2
modifications: N-terminus assumed
SMILES: CC[C@H](C)[C@H](NC(=O)[C@H](CC(C)C)NC(=O)[C@H](Cc1c[nH]c2ccccc12)NC(=O)[C@H](CCC(N)=O)NC(=O)[C@@H](NC(=O)[C@H](Cc1ccccc1)NC(=O)[C@H](CC(=O)O)NC(=O)[C@H](CCCNC(=N)N)NC(=O)[C@H](C)NC(=O)[C@H](CCCNC(=N)N)NC(=O)[C@H](CCCNC(=N)N)NC(=O)[C@H](CC(C)C)NC(=O)[C@H](CC(=O)O)NC(=O)[C@H](CC(C)C)NC(=O)[C@H](Cc1ccc(O)cc1)NC(=O)[C@H](CCCCN)NC(=O)[C@H](CO)NC(=O)[C@H](CC(C)C)NC(=O)[C@H](CC(=O)O)NC(=O)[C@H](CO)NC(=O)[C@@H](NC(=O)[C@H](Cc1ccccc1)NC(=O)[C@@H](NC(=O)CNC(=O)[C@H](CCC(N)=O)NC(=O)C(C)(C)NC(=O)[C@@H](N)Cc1c[nH]cn1)[C@@H](C)O)[C@@H](C)O)C(C)C)C(=O)N[C@@H](CO)C(=O)N[C@@H](CCCCNC(=O)CC[C@H](NC(=O)CC[C@H](NC(=O)COCCOCCNC(=O)COCCOCCNC(=O)CC[C@H](NC(=O)CCCCCCCCCCCCCCCCC(=O)O)C(=O)O)C(=O)O)C(=O)O)C(N)=O
B4: N^ε29-[(4S)-4-carboxy-4-[[(4S)-4-carboxy-4-[[2-[2-[2-[[2-[2-[2-[[(4S)-4-carboxy-4-(17-carboxyheptadecanoylamino)butanoyl]amino]ethoxy]ethoxy]acetyl]amino]ethoxy … (peptide)
chain: H[Aib]QGTFTSDLSKYLDLRRARDFVQWLINK([γGlu-γGlu-AEEA-AEEA-γGlu-C18 diacid])-NH2
modifications: N-terminus assumed
SMILES: CC[C@H](C)[C@H](NC(=O)[C@H](CC(C)C)NC(=O)[C@H](Cc1c[nH]c2ccccc12)NC(=O)[C@H](CCC(N)=O)NC(=O)[C@@H](NC(=O)[C@H](Cc1ccccc1)NC(=O)[C@H](CC(=O)O)NC(=O)[C@H](CCCNC(=N)N)NC(=O)[C@H](C)NC(=O)[C@H](CCCNC(=N)N)NC(=O)[C@H](CCCNC(=N)N)NC(=O)[C@H](CC(C)C)NC(=O)[C@H](CC(=O)O)NC(=O)[C@H](CC(C)C)NC(=O)[C@H](Cc1ccc(O)cc1)NC(=O)[C@H](CCCCN)NC(=O)[C@H](CO)NC(=O)[C@H](CC(C)C)NC(=O)[C@H](CC(=O)O)NC(=O)[C@H](CO)NC(=O)[C@@H](NC(=O)[C@H](Cc1ccccc1)NC(=O)[C@@H](NC(=O)CNC(=O)[C@H](CCC(N)=O)NC(=O)C(C)(C)NC(=O)[C@@H](N)Cc1c[nH]cn1)[C@@H](C)O)[C@@H](C)O)C(C)C)C(=O)N[C@@H](CC(N)=O)C(=O)N[C@@H](CCCCNC(=O)CC[C@H](NC(=O)CC[C@H](NC(=O)COCCOCCNC(=O)COCCOCCNC(=O)CC[C@H](NC(=O)CCCCCCCCCCCCCCCCC(=O)O)C(=O)O)C(=O)O)C(=O)O)C(N)=O
B5: N^ε29-[(4S)-4-carboxy-4-[[(4S)-4-carboxy-4-[[2-[2-[2-[[2-[2-[2-[[(4S)-4-carboxy-4-(17-carboxyheptadecanoylamino)butanoyl]amino]ethoxy]ethoxy]acetyl]amino]ethoxy … (peptide)
chain: H[Aib]QGTFTSDLSKYLDLRRAREFVQWLISK([γGlu-γGlu-AEEA-AEEA-γGlu-C18 diacid])-NH2
modifications: N-terminus assumed
SMILES: CC[C@H](C)[C@H](NC(=O)[C@H](CC(C)C)NC(=O)[C@H](Cc1c[nH]c2ccccc12)NC(=O)[C@H](CCC(N)=O)NC(=O)[C@@H](NC(=O)[C@H](Cc1ccccc1)NC(=O)[C@H](CCC(=O)O)NC(=O)[C@H](CCCNC(=N)N)NC(=O)[C@H](C)NC(=O)[C@H](CCCNC(=N)N)NC(=O)[C@H](CCCNC(=N)N)NC(=O)[C@H](CC(C)C)NC(=O)[C@H](CC(=O)O)NC(=O)[C@H](CC(C)C)NC(=O)[C@H](Cc1ccc(O)cc1)NC(=O)[C@H](CCCCN)NC(=O)[C@H](CO)NC(=O)[C@H](CC(C)C)NC(=O)[C@H](CC(=O)O)NC(=O)[C@H](CO)NC(=O)[C@@H](NC(=O)[C@H](Cc1ccccc1)NC(=O)[C@@H](NC(=O)CNC(=O)[C@H](CCC(N)=O)NC(=O)C(C)(C)NC(=O)[C@@H](N)Cc1c[nH]cn1)[C@@H](C)O)[C@@H](C)O)C(C)C)C(=O)N[C@@H](CO)C(=O)N[C@@H](CCCCNC(=O)CC[C@H](NC(=O)CC[C@H](NC(=O)COCCOCCNC(=O)COCCOCCNC(=O)CC[C@H](NC(=O)CCCCCCCCCCCCCCCCC(=O)O)C(=O)O)C(=O)O)C(=O)O)C(N)=O
B6: N^ε29-[(4S)-4-carboxy-4-[[(4S)-4-carboxy-4-[[2-[2-[2-[[2-[2-[2-[[(4S)-4-carboxy-4-(17-carboxyheptadecanoylamino)butanoyl]amino]ethoxy]ethoxy]acetyl]amino]ethoxy … (peptide)
chain: H[Aib]QGTFTSDLSKYLDLRRARDFVAWLISK([γGlu-γGlu-AEEA-AEEA-γGlu-C18 diacid])-NH2
modifications: N-terminus assumed
SMILES: CC[C@H](C)[C@H](NC(=O)[C@H](CC(C)C)NC(=O)[C@H](Cc1c[nH]c2ccccc12)NC(=O)[C@H](C)NC(=O)[C@@H](NC(=O)[C@H](Cc1ccccc1)NC(=O)[C@H](CC(=O)O)NC(=O)[C@H](CCCNC(=N)N)NC(=O)[C@H](C)NC(=O)[C@H](CCCNC(=N)N)NC(=O)[C@H](CCCNC(=N)N)NC(=O)[C@H](CC(C)C)NC(=O)[C@H](CC(=O)O)NC(=O)[C@H](CC(C)C)NC(=O)[C@H](Cc1ccc(O)cc1)NC(=O)[C@H](CCCCN)NC(=O)[C@H](CO)NC(=O)[C@H](CC(C)C)NC(=O)[C@H](CC(=O)O)NC(=O)[C@H](CO)NC(=O)[C@@H](NC(=O)[C@H](Cc1ccccc1)NC(=O)[C@@H](NC(=O)CNC(=O)[C@H](CCC(N)=O)NC(=O)C(C)(C)NC(=O)[C@@H](N)Cc1c[nH]cn1)[C@@H](C)O)[C@@H](C)O)C(C)C)C(=O)N[C@@H](CO)C(=O)N[C@@H](CCCCNC(=O)CC[C@H](NC(=O)CC[C@H](NC(=O)COCCOCCNC(=O)COCCOCCNC(=O)CC[C@H](NC(=O)CCCCCCCCCCCCCCCCC(=O)O)C(=O)O)C(=O)O)C(=O)O)C(N)=O
B7: N^ε29-[(4S)-4-carboxy-4-[[(4S)-4-carboxy-4-[[2-[2-[2-[[2-[2-[2-[[(4S)-4-carboxy-4-(17-carboxyheptadecanoylamino)butanoyl]amino]ethoxy]ethoxy]acetyl]amino]ethoxy … (peptide)
peptide: H[Aib]QGTFTSDLSKYLDLRRAREFVQWLINK([γGlu-γGlu-AEEA-AEEA-γGlu-C18 diacid])-NH2
modifications: N-terminus assumed
SMILES: CC[C@H](C)[C@H](NC(=O)[C@H](CC(C)C)NC(=O)[C@H](Cc1c[nH]c2ccccc12)NC(=O)[C@H](CCC(N)=O)NC(=O)[C@@H](NC(=O)[C@H](Cc1ccccc1)NC(=O)[C@H](CCC(=O)O)NC(=O)[C@H](CCCNC(=N)N)NC(=O)[C@H](C)NC(=O)[C@H](CCCNC(=N)N)NC(=O)[C@H](CCCNC(=N)N)NC(=O)[C@H](CC(C)C)NC(=O)[C@H](CC(=O)O)NC(=O)[C@H](CC(C)C)NC(=O)[C@H](Cc1ccc(O)cc1)NC(=O)[C@H](CCCCN)NC(=O)[C@H](CO)NC(=O)[C@H](CC(C)C)NC(=O)[C@H](CC(=O)O)NC(=O)[C@H](CO)NC(=O)[C@@H](NC(=O)[C@H](Cc1ccccc1)NC(=O)[C@@H](NC(=O)CNC(=O)[C@H](CCC(N)=O)NC(=O)C(C)(C)NC(=O)[C@@H](N)Cc1c[nH]cn1)[C@@H](C)O)[C@@H](C)O)C(C)C)C(=O)N[C@@H](CC(N)=O)C(=O)N[C@@H](CCCCNC(=O)CC[C@H](NC(=O)CC[C@H](NC(=O)COCCOCCNC(=O)COCCOCCNC(=O)CC[C@H](NC(=O)CCCCCCCCCCCCCCCCC(=O)O)C(=O)O)C(=O)O)C(=O)O)C(N)=O
notes: also called Chem. 22; Chem 22

The target of one experiment is T1, human GLP-1 receptor (human, UniProt P43220 24-463). As to the kind of experiment: cell-based or functional assay.
As for B1, the “GLP-1R EC50 (pM) [Assay (I)(a)], CRE luciferase reporter, BHK cells” value stood at 5 pM.

In the next experiment the target is T2, human glucagon receptor (human, UniProt P47871 26-477). The experiment is described as follows: cell-based or functional assay.
T2 sequence (P47871 26-477): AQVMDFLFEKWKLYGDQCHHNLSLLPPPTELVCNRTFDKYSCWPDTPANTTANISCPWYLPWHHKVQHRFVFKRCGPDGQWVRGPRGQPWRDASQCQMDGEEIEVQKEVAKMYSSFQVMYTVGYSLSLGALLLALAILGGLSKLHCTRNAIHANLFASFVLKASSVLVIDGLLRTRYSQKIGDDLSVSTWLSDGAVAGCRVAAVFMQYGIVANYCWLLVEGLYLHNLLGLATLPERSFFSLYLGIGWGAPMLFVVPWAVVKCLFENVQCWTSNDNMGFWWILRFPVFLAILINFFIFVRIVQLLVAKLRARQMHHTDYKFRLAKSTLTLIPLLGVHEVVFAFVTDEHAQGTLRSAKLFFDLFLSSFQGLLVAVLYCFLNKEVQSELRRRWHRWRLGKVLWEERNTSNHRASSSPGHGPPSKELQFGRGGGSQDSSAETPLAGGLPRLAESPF
B1: the “GlucagonR EC50 (pM), [Assay (I)(b)], CRE luciferase reporter, BHK cells” value was 13 pM.

Another experiment has as its target T2, human glucagon receptor. The experiment is described as follows: displacement of [125I]-glucagon from BHK membranes with human glucagon receptor, SPA, no serum albumin. In general terms: Displacement assays read how much labelled ligand stays bound in the presence of the test substance.
Consider B2, for which the IC50 worked out at 60 nM.

B3 showed an IC50 of 64.7 nM.

Consider B4, for which the IC50 was 83.2 nM.

The molecule B5 came in with an IC50 of 71.2 nM.

Molecule B6 came in with an IC50 of 144 nM.

As to B1, the IC50 was determined as 2.7 nM.

Take B7: the IC50 was found to be 67.3 nM.

The target in a further experiment is T1, human GLP-1 receptor. As to the kind of experiment: displacement of [125I]-GLP-1-(7-36)NH2 from BHK membranes with human GLP-1R, SPA, no serum albumin.
B2 yielded an IC50 of 2.2 nM.

B3 came in with an IC50 of 1 nM.

The molecule B4 registered an IC50 of 0.3 nM.

In turn, B5 came in with an IC50 of 0.9 nM.

B6 returned an IC50 of 1.1 nM.

The molecule B7 displayed an IC50 of 0.3 nM.

A word on the IC50: it is the point on the concentration scale where inhibition reaches its midpoint. A low value points to greater potency.
